# Assay results published in the nanobody polyreactivity screen of Harvey et al. (2022).
# Experiment: yeast display, Sf9 membrane polyspecificity reagent, FACS + sequencing; frameworks hold sequencing errors
# Method in brief: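 After 36–48 hours of galactose induction, yeast (Saccharomyces cerevisiae BJ5465) displaying a synthetic nanobody library were stained at 4 °C for 1 hour with 10% biotinylated, detergent-solubilized Sf9 membrane reagent. Streptavidin microbeads enriched the stained cells before FACS sorting into low and high (top ~1%) gates on anti-HA and streptavidin fluorescence. Each clone's polyreactivity label reflects its gate of origin.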
row,Sequence,polyreactivity (PSR sort gate)
1,QVQLVESGGGLVQAGGSLRLTCAASGRTFYYYAMGWYRKAPGKERELVAAIDSDGSTTYADSVKGRFTISRDNAKNTVYLQINSLKPEDTAVYYCAAAFPTYRHYYWGQGTQVTVSS,low polyreactivity
2,QVQLVESGGGLVQAGGSLRLSCAASGSIFVYYAMGWYRQAPGKERELVAAISKTGGRTYYADSVKGRFTISRDNAKNTVYLQMNSLKPEDTAVYYCAARYTIRYKRYDYWGQGTQVTVSS,high polyreactivity
3,QVQLVESGGGLVQAGGSLRLSCAASGRTFSNYAIGWYRQAPGKEREFVSDISWSVGSTYYADSVKGRFTISRDNAKNTVYLQMNSLKPEDTALYYCATEVPVGGQRHLFKYYYWGQGTQVTVSS,low polyreactivity
4,QVQLVESGGGLVQAAGSLRLICDASGFTFDLYAMGWYRQAPGKERELVAAISWSGGSTRYADSVKGGFTISRDNSKNTVYLQMTSLKPEDTALYYCARQPRLYFKVKLYGYWGQGTQVTVSS,high polyreactivity
5,QVQLVESGGGLVQAGGTLRLSCGASGGTFYLYTMGWYRPAPGKERELVAAISRGGSTNYADSVKGRFTISRDNAKNTVYLLMNSLIPEDTAVFYCAAVRSTGFRYYYADEYDYWGQGTQVTVSS,low polyreactivity
6,QVQHVESGGGLVQAGGSLRLSCAASGFIFPNNAMGWYLQAPGKERELVARISYGGGDTHYADSVKGRFTISRDNAKNTVSLQMNSLKPEDTAVYYCAVKVGQDDYWGQGTQVTVSS,low polyreactivity
7,QVQLVESGGGLVQAGGSLRLSCAASGSTFVYYAMGWYRQAPGKERELVARITRGGGSTNYADSLKARFTISRDNAKNTVYLHMNSLKPEDTAVYYCAKRRKVTYDYWGQGTQVSVSS,high polyreactivity
8,QVQLVESGGGLVQAGGSLRLSCAASGRIFGPYAMGWYRQAPGKERELVAAITRGGSTSYADSVKGRFTISRDNAKNTVDLQMISLKTEDTAVDYCAADTLRWWYGFDYWGQGTQVTVSS,low polyreactivity
9,QVQLVESGGGLVQAGGSLRLICAASGFIFSFNAMGWYRQAPGKERELVAAIRRSAGSTYYADSVKGRFTISRDNAKNTVYLQMNSLKPEDTAVYYCATVTRLYRHGYWGQGTQVTVSS,high polyreactivity
10,QVQLVESGGGLVQAGGSLRLTCAASRRIFSYYAMGDYIQATGKERELVADINWSGGSTYYADSVKGRFTISRDNAKNTFYLQMNSLKPEDTAVYYCAVDWTSAYGTYYYTPYDSWGQGTQVTVSS,low polyreactivity
11,QVQLVESGGGLVQAGGSLRLSCAASGSNFPWNAKGWYRQAPGKERELVAGINESGGSTYYADSVKGRFTISRDYAKNTVYLQMNSLKPEDTAVYYCAADGYPSVGDDYWGQGTQVTVSS,low polyreactivity
12,QVQLVESGGGLVQAGGSLRLSCAASGRIFYRNAMGWYRQAPGKERELVAVITSSSGSTYADSVKGRFTISRDNAKNTVYLQMNSLKPEDTAVYYCAAEEDYIYFYVSMDYWGQGTQVTVSS,low polyreactivity
13,QVQLVESGGGLVQAGGSLRLICAASGLIFRGYAKGWYRQAPGKERELVAAISKSGGSTYYADSVKGRFTISRDNAKNTVYLQMNSLKPEDTAVYYCNTDYVWKYFLSSQYDYWGQGTQVTVSS,high polyreactivity
14,QVQLVESGGGLVQAGGSLRLSCAASGSIFTVNAMGWYRPAPAKERELVATISDTGGSTYADSVKGRFTISRYNAKNTVYLQMNSLKPEDTAVYYCNADYYVRRYPPYDYWGQGTQVTVSS,low polyreactivity
15,QVQLVESGGGLVQAGGSLRLSCAASGFIFLYYAMGWYRQAPGKERELVAAISNGGSTYYADSVKGRFTISRDNAKNTVYLQMNSLKPEDTAVYYCAARYGYRYTLKYGYWGQGTQVTVSS,high polyreactivity
16,HVQLVESAGGLVQAGGSLRLSCAASGFIFGYYAMGWYRQAPGKERELVAAINYNDDSTYYADSVKGRFTISRDNAKNTVYLQMNSLKPEDTAVYYCAVRRWDAGDYWGQGTQVTVSS,low polyreactivity
17,QVQLVESGGGLVQAGGSLRLSCAASGNTFYGYSMGWYRQAPGKERELVASITLSGDSTYYADSVKGRFTISRDNAKNTVYLQMNSLKPEDTAVYYCARRSRESYEYDYWGQGTQVTVSS,low polyreactivity
18,QVQLVESGGGLVQAGGSLRLSCAASGSIFDYNVMGWSRQAPGKERELVAAITYNDGSTYYGDSVKGRFTISRDYAKNTVYLQMNSLKPEDTAVYYCNAEQTPSGLYDYRGVEGEMGYWGQGTQVTVSS,low polyreactivity
19,QVQLVESGGGLVQAGGSLRLSCAASGSTFDYYYMGWYRQAPGKERELVAAISYSGTSTYYADSVKGRFTISRDNAKNTVYLQMNSQKPEDTAVYYCAKVFPDWYWYDYCGQGTQVTVSS,low polyreactivity
20,QVQLVESGGGLVQAGGSLRLSCAASGLIFSEYAMGWYRQAPGKERELDAAIRSDGGSTYYADSVKGRFTISRDNAKNTVYLQMNSLKPEDTAVYYCNDRHRSQTRTAMNYWGQGTIVTVSS,high polyreactivity
21,QVQLVESGGGLVQAGGSLRLSCAASGSIFYRYVMGWYRQAPGKERELVAAITSTGSTYYADSVKGRFTISRDNAKNTVYLQMNSLKPEDTAVYYCNTLYARPLRDSYGYWGQGTQVTVSS,high polyreactivity
22,QVQLVESGGGLVQAGGSLRLTWAATGSIFRTNAMGSYRPAPGKERELVAAITGSGGSTYYADSVKGRFTISRYNAKNTVYLQMNCLKPEETAVYYCAAEFGSFVSPYNYYYWGQGTQVTVSS,low polyreactivity

row,Sequence,polyreactivity (PSR sort gate)
1,QVQLVESGGGLVQAGGSLRLICAASGYTFYAYAMGWYRQAPGKERELVAAITSGSSTYYADSVKGRFTISRDNAKNTVYLQMNSLKQEDTAVYYCASRIRGWRLLTSYYWGQGTQVTVSS,low polyreactivity
2,QVQLVESGGGLVQAGGSLRLSCAASGSIFSSYAMGWYRQAPGKERELVAAISQSGGDTYYADSVKGRFTISRDNAKYTVYLQMNSLKPDDTAVYYCAASVWYFPMDYWGQGTQLTVSS,low polyreactivity
3,QVQLVDSGGGLVQAGGSLRLSCAASGITFGNYAMGWYRQAPGKERELVASISWNVGSTYYADSVKGRFTISRDNAKNTVYLQMNSLKPEDTAVYYCARGYDRPRVATFHRFDYWGQGTQVTVSS,low polyreactivity
4,QVQLEESGGGLVQAGGSLRLSCAASGRIFYYYTMGWYRQAPGKERELVAAISWGGVNTDYADSVKGRFTISRDNAKNTVYLQMNSLKPEDTAVYYCAAGRWSVGTYDYWGQGTQVTVSS,low polyreactivity
5,QVQLVESGGGLVQAGGSLRLSCAASGRTFRYYAMGWYRQAPGKERELVAAITWSVGSTYYADSVKGRFTISRDNAKNTVYLQMNSRKPEDTAVYYCAADRVRGGYRTYYWVVHFDYWGQGTQVTVSS,high polyreactivity
6,QVQLVESGGGLVQAGGSLRLSCAASGRIFSDYAMGWYRQAPGKERELVAAISWGGGRTYYADSVKGRFTISRDNAKNTVYLQMNSLKPEDTAVYYCNRGTVNSWARGYWGQGTQVTVSS,high polyreactivity
7,QVQLVESGGGLVQAGGSHSLRCAASGSIFYRYDRGWYRQAPGTARELVAAITRSGGSTYYADSVKGRFTISRDNAKNTVYLQMNSLKPEDTAVYFCNASIDRYRLLIFPRPYWKYAYWGQGTQVTVSS,low polyreactivity
8,QVQIVESGGGLVQAGGSLRLSCAASGSTFLKYTMGWYRQAPGKERELVAAISKSGGSTYYADSVKGRFTISRDNAKNTVYLQMNSLKPEDTAVYYCAIGRSWVSSYGYGYWGQGTQVTVSS,high polyreactivity
9,QVQLVESGGGLVQAGGSLRLSCAASGRSFKRYDMGGYIQAPGKERELVAAITGTGGSTYYADSVKGRFTISRDNAKNTVYLQMNSLKPEDPADYYCAARLYNTYSGFAFGYWGQGTQVTVSS,high polyreactivity
10,QVQLVESGGGLVQAGGSLRLSCAASGYTFYSYALGWYRQAPGKERELVAAITSGGRTNYADSVKGRFTISRDNAKNTVYLQMNSLKPEDTAVYYCAAYVFRAYGRYYYWGQGTQVTVSS,high polyreactivity
11,QLQLVESGGGLVQAGGSLRLSCAASGRTFVRYAMGWYRQAPGKERELVAGISRSTGGTYYADSVKGRFTISRDNAKNTVYLQMNSLKPEDTAVYYCAAVYHKNGSGDYSWGQGTQVTVSS,high polyreactivity
12,QVQLVESGGGLVQAGGRLRLSCAASGRNFEPYAMGWYRQAPGKERELVAAISRSGGRTYYADSVKGRFTISRDNAKNTVYLQMNSLKPEDTAVYYCAAVGVYWYVYPHEYDYWGQGTQVTVSS,high polyreactivity
13,QVQLVESGGGLVQAGGSLRLRCAASGSIFSRNAMGWYRQAPGKERELVAAISGRGGSTYYADSVKGRFTISRDNAMNTVYLQMNRLKPEDTAVYYCAKAVIYRLSEAMDYWGQGSQVTVSS,high polyreactivity
14,QVQLVESGGGLVQAGGSLRLSCAASGIFEWNAMGWYRQAPRTERELVAAISNSGGSTYYADSVKGRFTISRDNAKNTVYLQMNSLKPEDNAVYYCAARSKTPAWWYWNSYYIRDYWGQATQVTVSS,high polyreactivity
15,QVQLVESGGGLVQAGGSLRLSCAASGFTFTYYTMGWYRPAPGKERELVAGISRSGGSTYYADSVKGRFTISRDNAKNTVYLQMNSLKPEDTAVYYCFPGKTRLYGYWGQGTQVTVSS,high polyreactivity
16,QVQLVESGGGLVQAGGSLRLSCAASGIIFYYYAKGWYRQSPGKERELVAAISSSGGRTRYADSVKGRFTISRDNAKNTVFLQMNSLKPEDSAVYYCAAEFIRGYGESYDYWGQGTQVTVSS,low polyreactivity
17,QEQLVESGGGFVQAGGSLRLSCAASGRIFTGYAMGWYRQAPGKERELVAVITWSTGSSTYYADSVKGRFTISRDNAKNTVYLQMNSLNPEDTAVYYFNAAYKIDFTYDTYDYWGQGTQVTVSS,low polyreactivity
18,QVQLVESGGGLVQAGGSLRLSCAASGITFRRYAMGWYRQAPGKERELVAAISRSGGSTRYADSVKGRFTISRDNAKNTVYLLMNSLKPEDTAVYYCAADGVPGRAVDYEYWGQGTQVTVSS,high polyreactivity
19,QVQLVESGGGLVQAGGSLRLSCAASGSTFEVYVMGWYRQAPGKERELVAGISKRGGRTYYADSVKGRFTISRDTEKNTVYLQLNSLKPEDTAVYYCAADAPGHEYYYWGQGTQVTVSS,high polyreactivity
20,QVQLVESGGGLVQAGGSLRLSCAATGSIFNYYAMGWYRQAPGKERELVATISRGGRTNYADSVKGRFTISRDNAKNTVYLQMNRLKAEETAVYYCAADRYYTYNVYYFSSFVYWGHGTQVTVSS,high polyreactivity
21,QVQLVESGGGLVQAGGSLRLSCAASGFISRNAMGWYRQAPGKQRELVAGITRGGSTNYADSVKGRFTISRDNAKNTVYLHMNSLKPEYTAVYYFATRRRLKGLAYDYWGQGNQVTVSS,high polyreactivity
